Experimental data as given in publication PMC4226670.

Target: GST-p53 (UniProt P04637)
Assay: fluorescence polarization
Details: FP: 4 nM FAM duplex, 100 mM NaCl, 10 mM Tris-HCl pH 7.5, 10% glycerol, 5 mM DTT, 0.2 mg/mL BSA, room temperature; pull-down: 2 ug duplex with lysate, 90 min …

GST-p53, sequence (P04637 whole entry): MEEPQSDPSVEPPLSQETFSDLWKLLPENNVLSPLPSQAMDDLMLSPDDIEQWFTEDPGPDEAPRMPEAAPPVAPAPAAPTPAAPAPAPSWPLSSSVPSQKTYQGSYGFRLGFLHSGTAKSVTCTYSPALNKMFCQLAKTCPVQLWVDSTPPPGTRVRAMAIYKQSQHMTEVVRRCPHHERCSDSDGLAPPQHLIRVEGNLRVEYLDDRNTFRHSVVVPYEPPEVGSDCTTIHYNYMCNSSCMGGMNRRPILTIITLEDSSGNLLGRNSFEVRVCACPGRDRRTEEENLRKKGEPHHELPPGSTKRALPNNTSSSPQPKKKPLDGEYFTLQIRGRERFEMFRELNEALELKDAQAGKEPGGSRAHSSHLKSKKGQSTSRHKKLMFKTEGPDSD

CGCGCCTGCAAGTCCTGACTTGTCCGCGGC (double strand) [PUMA promoter duplex, FAM]
Kd: 29.6 nM
